{
  "source": "paper PMC7294093",
  "about": "“S-Glutathionylation of human inducible Hsp70 reveals a regulatory mechanism involving the C-terminal α-helical lid” (The Journal of Biological Chemistry, 2020)",
  "binders": {"B1": {"name": "FITC-labeled ALLLSAPRR (FAR) peptide (peptide)", "peptide": "{FITC}-ALLLSAPRR", "notes": "fluorescently labeled peptide substrate"}},
  "settings_in_all_cases": "both partners purified",
  "key": {"hHsp70-CSSSS (hHsp70 …)": {"biological_target": "hHsp70-CSSSS (hHsp70 C267S/C306S/C574S/C603S) (human, UniProt P0DMV8 1-641, C267S | C306S | C574S | C603S)", "sequence (P0DMV8 whole entry C267S/C306S/C574S/C603S)": "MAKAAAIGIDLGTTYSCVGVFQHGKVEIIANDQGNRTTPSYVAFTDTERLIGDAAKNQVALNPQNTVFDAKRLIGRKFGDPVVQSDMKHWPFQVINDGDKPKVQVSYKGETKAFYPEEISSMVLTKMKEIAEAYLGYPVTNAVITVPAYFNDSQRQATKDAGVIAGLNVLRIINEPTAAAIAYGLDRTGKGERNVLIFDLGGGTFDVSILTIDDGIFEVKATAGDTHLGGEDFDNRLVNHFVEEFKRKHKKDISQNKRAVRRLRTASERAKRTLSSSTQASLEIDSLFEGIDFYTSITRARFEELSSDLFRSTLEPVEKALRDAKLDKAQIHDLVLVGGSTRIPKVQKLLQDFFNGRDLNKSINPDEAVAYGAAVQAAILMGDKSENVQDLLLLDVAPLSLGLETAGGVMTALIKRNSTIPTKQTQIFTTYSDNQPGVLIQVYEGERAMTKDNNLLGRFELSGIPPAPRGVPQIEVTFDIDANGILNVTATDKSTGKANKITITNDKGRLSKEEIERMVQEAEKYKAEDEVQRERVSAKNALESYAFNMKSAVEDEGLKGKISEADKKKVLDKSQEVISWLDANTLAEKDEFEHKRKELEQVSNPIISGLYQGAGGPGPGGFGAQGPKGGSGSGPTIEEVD", "experiment": "fluorescence polarisation; steady state; 20 nM FAR with increasing hHsp70 or mutant; apo (no nucleotide); Buffer B; RT, 60 min; single site binding model"}, "[1]": {"biological_target": "T1, WT hHsp70 (human HspA1A), full-length (residues 1–641) (human, UniProt P0DMV8 1-641)", "T1 construct": "The deglutathionylated sample (glutathionylated, then 10 mM DTT) carries no modification and is written as this molecule; the label in the row tells which sample it was; also called HspA1A/B; untreated control (-C); source: monomeric peak collected", "experiment": "fluorescence polarisation; steady state; 20 nM FAR with increasing hHsp70 or mutant; apo (no nucleotide); Buffer B; RT, 60 min; single site binding model"}, "[2]": {"biological_target": "hHsp70-CSSCC (hHsp70 C267S/C306S) (human, UniProt P0DMV8 1-641, C267S | C306S)", "sequence (P0DMV8 whole entry C267S/C306S)": "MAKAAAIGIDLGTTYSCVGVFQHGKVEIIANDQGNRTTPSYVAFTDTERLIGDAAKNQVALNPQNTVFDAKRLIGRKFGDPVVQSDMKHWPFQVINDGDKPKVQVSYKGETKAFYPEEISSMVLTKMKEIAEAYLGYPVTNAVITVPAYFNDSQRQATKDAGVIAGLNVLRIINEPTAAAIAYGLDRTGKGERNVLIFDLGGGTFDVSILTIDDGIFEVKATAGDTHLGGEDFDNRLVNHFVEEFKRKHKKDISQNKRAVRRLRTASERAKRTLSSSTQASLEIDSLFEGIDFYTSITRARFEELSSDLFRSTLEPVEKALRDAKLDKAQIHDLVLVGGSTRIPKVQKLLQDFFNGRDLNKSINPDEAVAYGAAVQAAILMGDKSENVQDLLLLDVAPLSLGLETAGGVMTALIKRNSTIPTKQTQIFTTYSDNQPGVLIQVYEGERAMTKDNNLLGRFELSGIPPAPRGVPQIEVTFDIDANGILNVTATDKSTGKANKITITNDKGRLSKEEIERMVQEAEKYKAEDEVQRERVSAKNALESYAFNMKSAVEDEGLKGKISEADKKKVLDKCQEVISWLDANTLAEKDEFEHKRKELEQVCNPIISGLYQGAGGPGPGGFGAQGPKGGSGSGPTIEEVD", "experiment": "fluorescence polarisation; steady state; 20 nM FAR with increasing hHsp70 or mutant; apo (no nucleotide); Buffer B; RT, 60 min; single site binding model"}, "hHsp70-CSSAA (hHsp70 …)": {"biological_target": "hHsp70-CSSAA (hHsp70 C267S/C306S/C574A/C603A) (human, UniProt P0DMV8 1-641, C267S | C306S | C574A | C603A)", "sequence (P0DMV8 whole entry C267S/C306S/C574A/C603A)": "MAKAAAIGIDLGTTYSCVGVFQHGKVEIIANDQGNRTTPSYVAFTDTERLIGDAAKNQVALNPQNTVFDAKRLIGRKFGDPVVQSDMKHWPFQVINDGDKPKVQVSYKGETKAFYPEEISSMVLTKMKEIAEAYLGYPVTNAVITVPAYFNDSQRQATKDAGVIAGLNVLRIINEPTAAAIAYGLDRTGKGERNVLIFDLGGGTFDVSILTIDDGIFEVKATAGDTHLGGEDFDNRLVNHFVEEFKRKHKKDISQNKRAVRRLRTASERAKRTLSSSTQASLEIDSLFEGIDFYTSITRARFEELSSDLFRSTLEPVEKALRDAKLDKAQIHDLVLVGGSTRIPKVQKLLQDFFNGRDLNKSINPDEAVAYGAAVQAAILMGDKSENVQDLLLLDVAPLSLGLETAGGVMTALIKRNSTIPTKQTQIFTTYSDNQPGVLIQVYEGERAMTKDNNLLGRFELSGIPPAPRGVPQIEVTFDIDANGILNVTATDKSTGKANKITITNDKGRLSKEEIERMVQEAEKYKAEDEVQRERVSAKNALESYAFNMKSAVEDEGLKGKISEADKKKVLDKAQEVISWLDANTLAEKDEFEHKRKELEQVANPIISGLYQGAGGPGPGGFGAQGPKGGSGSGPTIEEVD", "experiment": "fluorescence polarisation; steady state; 20 nM FAR with increasing hHsp70 or mutant; apo (no nucleotide); Buffer B; RT, 60 min; single site binding model"}, "hHsp70-CSSAS (hHsp70 …)": {"biological_target": "hHsp70-CSSAS (hHsp70 C267S/C306S/C574A/C603S) (human, UniProt P0DMV8 1-641, C267S | C306S | C574A | C603S)", "sequence (P0DMV8 whole entry C267S/C306S/C574A/C603S)": "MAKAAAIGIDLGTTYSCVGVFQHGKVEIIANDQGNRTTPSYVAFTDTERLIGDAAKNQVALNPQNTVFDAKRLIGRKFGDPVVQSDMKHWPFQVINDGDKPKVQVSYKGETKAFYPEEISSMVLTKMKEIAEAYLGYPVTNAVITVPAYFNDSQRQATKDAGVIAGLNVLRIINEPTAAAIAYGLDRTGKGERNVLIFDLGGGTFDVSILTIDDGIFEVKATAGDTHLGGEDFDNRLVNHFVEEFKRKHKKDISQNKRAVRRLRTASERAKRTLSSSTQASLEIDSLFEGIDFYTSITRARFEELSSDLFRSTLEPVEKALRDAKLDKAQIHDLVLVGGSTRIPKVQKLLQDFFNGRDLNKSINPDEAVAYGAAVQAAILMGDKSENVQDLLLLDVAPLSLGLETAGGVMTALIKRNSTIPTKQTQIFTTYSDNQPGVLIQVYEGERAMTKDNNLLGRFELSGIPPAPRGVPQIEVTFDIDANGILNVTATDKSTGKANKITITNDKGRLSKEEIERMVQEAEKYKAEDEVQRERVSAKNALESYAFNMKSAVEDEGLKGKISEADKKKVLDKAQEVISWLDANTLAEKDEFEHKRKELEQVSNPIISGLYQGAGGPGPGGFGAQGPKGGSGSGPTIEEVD", "experiment": "fluorescence polarisation; steady state; 20 nM FAR with increasing hHsp70 or mutant; apo (no nucleotide); Buffer B; RT, 60 min; single site binding model"}, "[3]": {"biological_target": "hHsp70-CSSCA (hHsp70 C267S/C306S/C603A) (human, UniProt P0DMV8 1-641, C267S | C306S | C603A)", "sequence (P0DMV8 whole entry C267S/C306S/C603A)": "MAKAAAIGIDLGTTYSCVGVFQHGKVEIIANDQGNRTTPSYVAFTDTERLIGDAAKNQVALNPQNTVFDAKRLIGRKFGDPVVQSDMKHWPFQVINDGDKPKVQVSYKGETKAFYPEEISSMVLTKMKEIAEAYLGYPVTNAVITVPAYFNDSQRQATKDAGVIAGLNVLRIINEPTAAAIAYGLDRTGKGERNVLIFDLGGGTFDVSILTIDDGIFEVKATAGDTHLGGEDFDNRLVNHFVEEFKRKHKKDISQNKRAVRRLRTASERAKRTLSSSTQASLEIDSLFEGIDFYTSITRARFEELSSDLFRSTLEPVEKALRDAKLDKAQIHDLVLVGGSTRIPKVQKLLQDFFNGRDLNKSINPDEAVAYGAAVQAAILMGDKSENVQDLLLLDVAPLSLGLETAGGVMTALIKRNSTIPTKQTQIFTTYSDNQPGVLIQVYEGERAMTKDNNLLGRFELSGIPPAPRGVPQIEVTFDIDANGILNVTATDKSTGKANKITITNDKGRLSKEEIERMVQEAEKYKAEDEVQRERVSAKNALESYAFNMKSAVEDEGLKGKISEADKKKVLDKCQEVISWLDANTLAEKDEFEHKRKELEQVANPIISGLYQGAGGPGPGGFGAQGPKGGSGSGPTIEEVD", "experiment": "fluorescence polarisation; kinetic time course at RT; 20 nM FAR with 10 μM hHsp70 or mutant, apo or with ADP/ATP (1 mM; 0.5 mM ADP in Fig. 7C); 1 mM diamide with 1 mM GSH added at 60 min, 10 mM DTT at 120 min"}, "[4]": {"biological_target": "hHsp70-CSSAC (hHsp70 C267S/C306S/C574A) (human, UniProt P0DMV8 1-641, C267S | C306S | C574A)", "sequence (P0DMV8 whole entry C267S/C306S/C574A)": "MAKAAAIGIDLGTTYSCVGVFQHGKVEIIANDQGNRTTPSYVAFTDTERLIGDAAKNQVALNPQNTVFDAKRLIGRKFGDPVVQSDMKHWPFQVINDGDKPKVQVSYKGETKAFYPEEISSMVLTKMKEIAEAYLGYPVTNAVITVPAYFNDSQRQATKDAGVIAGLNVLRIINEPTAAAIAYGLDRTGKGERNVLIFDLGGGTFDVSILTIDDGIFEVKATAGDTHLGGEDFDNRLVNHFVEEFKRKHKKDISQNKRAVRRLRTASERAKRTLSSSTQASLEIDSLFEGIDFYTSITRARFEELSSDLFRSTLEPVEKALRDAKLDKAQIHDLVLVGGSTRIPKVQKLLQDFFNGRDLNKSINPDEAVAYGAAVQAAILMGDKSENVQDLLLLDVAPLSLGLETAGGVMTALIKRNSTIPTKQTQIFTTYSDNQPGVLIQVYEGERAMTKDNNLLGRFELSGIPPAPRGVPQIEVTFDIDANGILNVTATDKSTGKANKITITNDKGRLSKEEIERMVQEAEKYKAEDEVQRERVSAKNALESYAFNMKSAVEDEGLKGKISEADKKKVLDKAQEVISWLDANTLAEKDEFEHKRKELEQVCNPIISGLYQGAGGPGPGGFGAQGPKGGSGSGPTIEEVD", "experiment": "fluorescence polarisation; kinetic time course at RT; 20 nM FAR with 10 μM hHsp70 or mutant, apo or with ADP/ATP (1 mM; 0.5 mM ADP in Fig. 7C); 1 mM diamide with 1 mM GSH added at 60 min, 10 mM DTT at 120 min"}, "[5]": {"biological_target": "hHsp70 T204A (binds but does not hydrolyze ATP) (human, UniProt P0DMV8 1-641, T204A)", "sequence (P0DMV8 whole entry T204A)": "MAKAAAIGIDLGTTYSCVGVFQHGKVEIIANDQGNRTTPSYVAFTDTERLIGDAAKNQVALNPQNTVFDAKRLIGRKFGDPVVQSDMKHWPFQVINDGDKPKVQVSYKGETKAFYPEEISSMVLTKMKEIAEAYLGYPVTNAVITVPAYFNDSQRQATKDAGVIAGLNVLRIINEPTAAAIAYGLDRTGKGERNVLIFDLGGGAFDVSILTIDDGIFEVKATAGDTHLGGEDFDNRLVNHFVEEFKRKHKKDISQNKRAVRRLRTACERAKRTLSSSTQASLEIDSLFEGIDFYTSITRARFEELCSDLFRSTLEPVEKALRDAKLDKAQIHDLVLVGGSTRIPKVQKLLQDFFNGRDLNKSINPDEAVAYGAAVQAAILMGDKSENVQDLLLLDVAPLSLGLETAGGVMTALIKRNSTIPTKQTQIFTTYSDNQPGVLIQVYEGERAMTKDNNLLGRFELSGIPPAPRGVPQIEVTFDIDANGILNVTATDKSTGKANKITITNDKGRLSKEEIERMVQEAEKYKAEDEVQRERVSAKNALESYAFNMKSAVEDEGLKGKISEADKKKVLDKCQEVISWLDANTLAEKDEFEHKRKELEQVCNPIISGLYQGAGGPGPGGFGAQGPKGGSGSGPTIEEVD", "experiment": "fluorescence polarisation; kinetic time course at RT; 20 nM FAR with 10 μM hHsp70 or mutant, apo or with ADP/ATP (1 mM; 0.5 mM ADP in Fig. 7C); 1 mM diamide with 1 mM GSH added at 60 min, 10 mM DTT at 120 min"}, "[6]": {"biological_target": "T1, WT hHsp70 (human HspA1A), full-length …", "experiment": "fluorescence polarisation; steady state; 20 nM FAR with increasing hHsp70 (control, glutathionylated or deglutathionylated); 0.5 mM ADP in Buffer B (50 mM Tris-HCl pH 7.5, 100 mM KCl, 5 mM MgCl2); RT, 60 min; single site binding model"}},
  "note": "Where “and” joins values, the source holds several entries; their conditions need not be identical. Identical values can stand only once. Ends that are not written are not given here. * marks the point of attachment. FITC = O=C1OC2(c3ccc(O)cc3Oc3cc(O)ccc32)c2ccc(NC(=S)*)cc21",
  "data": [
    {"binder": "B1", "values": [
      {"measurement": "binding result", "setting": "hHsp70-CSSSS (hHsp70 …)", "result": "binds"},
      {"measurement": "Kd", "setting": "[1]", "result": "1120 ± 120", "unit": "nM"},
      {"measurement": "Kd", "setting": "[2]", "result": "1350 ± 230", "unit": "nM"},
      {"measurement": "Kd", "setting": "hHsp70-CSSAA (hHsp70 …)", "result": "1190 ± 210", "unit": "nM"},
      {"measurement": "Kd", "setting": "hHsp70-CSSAS (hHsp70 …)", "result": "1440 ± 540", "unit": "nM"},
      {"measurement": "binding result", "setting": "[3]", "result": "binds"},
      {"measurement": "binding result", "setting": "[4]", "result": "binds"},
      {"measurement": "binding result", "setting": "[5]", "result": "binds"},
      {"measurement": "Kd", "setting": "[6]", "result": "1070 nM and 1200 nM"}
    ]}
  ]
}
